Columns and labels:
Assay in all cases: Kd (EC50 corrected by depletion factor)
[1] = molecular target: T1, TRIM56 (UniProt Q9BRZ2)
T1 sequence: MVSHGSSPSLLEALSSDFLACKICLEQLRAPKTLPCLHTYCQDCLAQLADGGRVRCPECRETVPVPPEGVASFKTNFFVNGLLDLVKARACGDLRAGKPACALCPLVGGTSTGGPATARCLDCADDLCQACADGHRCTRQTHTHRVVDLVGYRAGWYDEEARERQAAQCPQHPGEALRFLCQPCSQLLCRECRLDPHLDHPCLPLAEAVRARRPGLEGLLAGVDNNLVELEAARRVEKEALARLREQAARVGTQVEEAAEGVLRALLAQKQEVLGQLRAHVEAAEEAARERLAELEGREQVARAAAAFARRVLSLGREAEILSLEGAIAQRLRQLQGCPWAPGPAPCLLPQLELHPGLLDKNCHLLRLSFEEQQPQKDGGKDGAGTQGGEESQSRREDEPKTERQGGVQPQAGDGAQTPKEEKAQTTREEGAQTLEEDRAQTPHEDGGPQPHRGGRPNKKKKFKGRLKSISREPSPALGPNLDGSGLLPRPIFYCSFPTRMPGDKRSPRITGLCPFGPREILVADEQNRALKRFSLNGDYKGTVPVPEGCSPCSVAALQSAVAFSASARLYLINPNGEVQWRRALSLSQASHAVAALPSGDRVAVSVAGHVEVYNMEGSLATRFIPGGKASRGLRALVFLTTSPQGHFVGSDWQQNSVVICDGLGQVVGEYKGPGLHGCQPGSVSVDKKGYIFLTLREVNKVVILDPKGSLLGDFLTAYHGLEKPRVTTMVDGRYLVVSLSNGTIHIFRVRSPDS
Method in brief: (§1)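 Over three biological replicates and two independent experiments, proteins captured on NHS-Sepharose beads carrying 5′-amino-C6 RNA oligos were quantified by label-free LC-MS/MS and normalised to the control. Capture lasted 30 min at 4°C and followed a 1 h pre-incubation at 4°C of HEK293-FT lysate (2.5 mg protein/well) with the same oligos in free form (0 nM to 30 μM). EC50 was taken from a four-parameter log-logistic fit, and Kd was EC50 corrected by a protein-dependent depletion factor.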

[2] = molecular target: T2, CSTF1 (UniProt Q05048)
T2 sequence: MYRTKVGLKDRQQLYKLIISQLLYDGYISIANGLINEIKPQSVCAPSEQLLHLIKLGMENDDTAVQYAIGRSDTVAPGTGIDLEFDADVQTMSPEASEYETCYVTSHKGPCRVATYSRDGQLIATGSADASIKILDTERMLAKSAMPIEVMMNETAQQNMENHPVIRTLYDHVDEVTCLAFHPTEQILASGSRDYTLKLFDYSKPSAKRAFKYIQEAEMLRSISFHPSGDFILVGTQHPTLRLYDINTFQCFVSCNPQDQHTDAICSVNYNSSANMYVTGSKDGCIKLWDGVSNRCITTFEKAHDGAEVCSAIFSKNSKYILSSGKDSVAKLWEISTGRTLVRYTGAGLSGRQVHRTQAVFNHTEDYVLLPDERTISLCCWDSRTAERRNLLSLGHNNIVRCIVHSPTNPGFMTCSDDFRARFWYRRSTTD
Method in brief: as §1

[3] = molecular target: T3, TSNAX (UniProt Q99598)
T3 sequence: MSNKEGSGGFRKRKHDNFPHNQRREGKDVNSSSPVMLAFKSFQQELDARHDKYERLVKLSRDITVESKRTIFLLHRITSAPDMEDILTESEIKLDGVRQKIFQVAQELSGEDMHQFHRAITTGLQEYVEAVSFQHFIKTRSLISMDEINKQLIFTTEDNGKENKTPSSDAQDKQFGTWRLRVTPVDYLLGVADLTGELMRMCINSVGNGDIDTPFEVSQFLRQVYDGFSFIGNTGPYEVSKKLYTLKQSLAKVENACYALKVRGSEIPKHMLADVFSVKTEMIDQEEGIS
Method in brief: as §1

[4] = molecular target: HSP90AB2P (UniProt Q58FF8)
Chain of HSP90AB2P (Q58FF8 whole entry): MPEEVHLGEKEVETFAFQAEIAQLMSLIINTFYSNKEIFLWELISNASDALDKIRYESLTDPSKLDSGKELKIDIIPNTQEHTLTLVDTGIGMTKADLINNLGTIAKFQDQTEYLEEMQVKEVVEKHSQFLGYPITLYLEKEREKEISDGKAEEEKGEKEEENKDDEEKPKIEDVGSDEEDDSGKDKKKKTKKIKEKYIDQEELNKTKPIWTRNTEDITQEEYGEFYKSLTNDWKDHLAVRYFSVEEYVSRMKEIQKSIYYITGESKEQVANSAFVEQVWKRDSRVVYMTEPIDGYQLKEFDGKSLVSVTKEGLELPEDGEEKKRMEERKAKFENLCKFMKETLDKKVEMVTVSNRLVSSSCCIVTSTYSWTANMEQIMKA
Method in brief: as §1

[5] = molecular target: T4, TIA1 (UniProt P31483)
T4 sequence: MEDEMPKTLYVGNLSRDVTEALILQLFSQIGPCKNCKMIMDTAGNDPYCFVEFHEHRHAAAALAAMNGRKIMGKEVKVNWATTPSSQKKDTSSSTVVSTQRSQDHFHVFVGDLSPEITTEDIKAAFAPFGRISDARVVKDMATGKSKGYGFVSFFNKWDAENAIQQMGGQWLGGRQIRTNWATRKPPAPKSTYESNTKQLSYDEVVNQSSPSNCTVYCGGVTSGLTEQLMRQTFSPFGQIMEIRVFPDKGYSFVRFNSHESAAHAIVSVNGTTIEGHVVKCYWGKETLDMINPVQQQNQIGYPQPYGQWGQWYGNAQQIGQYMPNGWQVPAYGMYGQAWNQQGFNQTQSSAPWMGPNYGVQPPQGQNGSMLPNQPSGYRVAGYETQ
Method in brief: as §1

[6] = molecular target: T5, CPSF7 (UniProt Q8N684)
T5 sequence: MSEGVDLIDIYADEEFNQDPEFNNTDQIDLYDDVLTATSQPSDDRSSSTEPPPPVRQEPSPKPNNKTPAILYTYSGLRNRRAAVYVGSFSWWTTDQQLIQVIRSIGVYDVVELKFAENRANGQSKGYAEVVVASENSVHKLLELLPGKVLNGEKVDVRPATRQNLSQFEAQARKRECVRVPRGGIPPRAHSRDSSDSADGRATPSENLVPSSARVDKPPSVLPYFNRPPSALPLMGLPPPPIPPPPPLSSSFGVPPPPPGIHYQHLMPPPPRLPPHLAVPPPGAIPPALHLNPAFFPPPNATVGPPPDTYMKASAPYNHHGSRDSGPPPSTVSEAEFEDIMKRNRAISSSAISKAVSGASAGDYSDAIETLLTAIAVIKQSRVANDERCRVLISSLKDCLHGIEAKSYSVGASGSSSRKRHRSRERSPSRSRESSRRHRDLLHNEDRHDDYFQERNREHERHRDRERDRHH
Method in brief: as §1

[7] = molecular target: MRPL14 (UniProt Q6P1L8)
Method in brief: as §1

Q: Which results are given for UAUUUAU?
A: Kd [1]: 2.88 µM; Kd [2]: 0.322 µM

Q: Which Kd [3] does the source give for AAUAAA here?
A: The Kd was 0.00596 µM.

Q: And the Kd [4]?
A: The Kd was 0.108 µM.

Q: What about the Kd [5] of the same sequence?
A: Its Kd is 0.158 µM.

Q: What about the Kd [6] of the same sequence?
A: The Kd was 2.1 µM.

Q: Which Kd [7] does the source give for CUGUCCU here?
A: Its Kd is 0.0535 µM.

Reference: the supplement of paper PMC6379048
